Source: patent publication US20130012690

Target: Tfl-bZip (GCN4 residues 226-281, leucine zipper leucines replaced with 5,5,5-trifluoroleucine) Leu to 5,5,5-trifluoroleucine in the GCN4-p1 dimerization domain (four d-position leucines) (UniProt P03069)
Test: EMSA

Tfl-bZip (GCN4 residues 226-281, leucine zipper leucines replaced with 5,5,5-trifluoroleucine) Leu to 5,5,5-trifluoroleucine in the GCN4-p1 dimerization domain (four d-position leucines), sequence (P03069 whole entry, the tested form may be a part): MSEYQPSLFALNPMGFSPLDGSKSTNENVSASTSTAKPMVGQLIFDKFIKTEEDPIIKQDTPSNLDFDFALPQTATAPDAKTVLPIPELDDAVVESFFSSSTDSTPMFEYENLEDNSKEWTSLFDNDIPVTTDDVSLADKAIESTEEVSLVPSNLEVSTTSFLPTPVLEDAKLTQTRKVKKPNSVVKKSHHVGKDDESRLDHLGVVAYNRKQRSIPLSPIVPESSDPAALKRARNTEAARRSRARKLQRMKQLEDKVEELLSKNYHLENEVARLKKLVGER

GTGGAGATGACTCATCTCCGG (double strand) [AP-1 site oligonucleotide]
Kd (densitometry of mobility shift assay): 12.5 nM

TGGAGATGACGTCATCTCCT (double strand) [CREB site oligonucleotide]
Kd (densitometry, CD at 0 C also shows coil-to-helix transition on DNA binding): 5.4 nM
